Experimental data from publication PMC3587573.

How the values were obtained:
BvPIP1;1 (Beta vulgaris) [1] = biological target: BvPIP1;1 (Beta vulgaris)
BvPIP1;1 (Beta vulgaris) [2] = biological target: BvPIP1;1 (Beta vulgaris); remark: listed apart in the source

Question: How did the maximal inhibition of Pf by cytosolic acidification in oocytes co-injected with BvPIP2;1 and BvPIP1;1 cRNA (1:1 mass ratio); not significantly different from BvPIP2;1 alone (BvPIP1;1 (Beta vulgaris) [1]) turn out when BvPIP2;1 (natural protein) was run?
Answer: 87%

Question: Which oocyte membrane Pf on co-injection of BvPIP1;1 and BvPIP2;1 N64H/E65Q cRNA, against the mutant alone (BvPIP1;1 (Beta vulgaris) [2]) does the source give for BvPIP2;1 N64H/E65Q (natural protein) here?
Answer: 4.3 fold

Question: Which oocyte membrane Pf on co-injection of BvPIP1;1 and BvPIP2;1 N64I/E65Q cRNA, against the mutant alone (BvPIP1;1 (Beta vulgaris) [2]) does the source give for BvPIP2;1 N64I/E65Q (natural protein) here?
Answer: 4.1 fold
